The source of these data is publication PMC9482650, “Quantitative fragmentomics allow affinity mapping of interactomes” (Nature Communications, 2022).

Holding throughout (assay): holdup assay
What all share (set-up): key: below the threshold = too weak to quantify, mostly under pKd 3.1 to 4
Holding throughout (conditions): plain residues with an end cap or a label only (N-terminal biotin on a linker: ttds)

Test [1] has as its target MAGI3_5, Q5TCQ9.
In test [2] the target is T1, MPDZ_3, O75970.
T1 sequence (O75970 372-473, limits assumed, looked up): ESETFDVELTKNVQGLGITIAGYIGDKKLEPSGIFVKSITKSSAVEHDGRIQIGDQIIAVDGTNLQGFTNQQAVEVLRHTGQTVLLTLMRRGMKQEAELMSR

Test [3] addresses PDZD9, Q8IXQ8.
Test [4] deals with CNKSR3, Q6P9H4.
CNKSR3, Q6P9H4, sequence (Q6P9H4 203-303): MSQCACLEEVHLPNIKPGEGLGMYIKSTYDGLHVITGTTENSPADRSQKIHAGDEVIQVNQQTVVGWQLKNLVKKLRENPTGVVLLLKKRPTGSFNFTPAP
For test [5], the target named is T2, MPDZ_6, O75970.
T2 sequence (O75970 1003-1099, limits assumed, looked up): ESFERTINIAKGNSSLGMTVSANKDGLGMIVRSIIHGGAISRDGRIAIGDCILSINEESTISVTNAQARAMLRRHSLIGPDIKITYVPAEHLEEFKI

Test [6] deals with PARD3B_2, Q8TEW8.
PARD3B_2, Q8TEW8, sequence (Q8TEW8 376-471): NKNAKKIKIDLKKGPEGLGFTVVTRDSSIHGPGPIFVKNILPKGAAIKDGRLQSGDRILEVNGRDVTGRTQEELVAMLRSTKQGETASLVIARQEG
For test [7], the target named is T3, PREX2_2, Q70Z35.
T3 sequence (Q70Z35 672-764, limits assumed, looked up): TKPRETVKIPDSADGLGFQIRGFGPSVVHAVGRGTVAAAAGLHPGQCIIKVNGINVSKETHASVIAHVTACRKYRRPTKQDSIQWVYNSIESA

The target of test [8] is T4, NHERF3_2, Q5T2W1.
T4 sequence (Q5T2W1 129-225, limits assumed, looked up): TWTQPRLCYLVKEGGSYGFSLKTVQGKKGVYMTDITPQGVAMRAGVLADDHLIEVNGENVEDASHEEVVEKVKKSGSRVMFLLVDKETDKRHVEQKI

The target in test [9] is PARD3_1, Q8TEW0.
PARD3_1, Q8TEW0, sequence (Q8TEW0 264-372): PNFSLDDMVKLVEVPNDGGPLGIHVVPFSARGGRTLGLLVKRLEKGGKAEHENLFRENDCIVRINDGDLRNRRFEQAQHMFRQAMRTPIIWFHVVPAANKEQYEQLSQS
For test [10], the target named is T5, SIPA1L3, O60292.
T5 sequence (O60292 961-1052, limits assumed, looked up): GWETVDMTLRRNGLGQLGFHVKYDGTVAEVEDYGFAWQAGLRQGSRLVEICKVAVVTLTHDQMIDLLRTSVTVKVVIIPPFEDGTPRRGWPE

For test [11], the target named is T6, SHROOM2, Q13796.
T6 sequence (Q13796 21-118, limits assumed, looked up): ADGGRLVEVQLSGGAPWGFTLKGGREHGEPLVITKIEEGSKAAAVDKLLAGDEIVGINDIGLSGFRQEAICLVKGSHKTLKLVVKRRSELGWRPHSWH

For test [12], the target named is LMO7, Q8WWI1.
LMO7, Q8WWI1, sequence (Q8WWI1 1037-1138): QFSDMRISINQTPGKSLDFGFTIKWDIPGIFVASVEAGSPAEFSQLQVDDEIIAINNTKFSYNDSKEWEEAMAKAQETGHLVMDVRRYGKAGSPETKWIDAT
Test [13] addresses T7, PDZD2_5, O15018.
T7 sequence (O15018 2617-2716, limits assumed, looked up): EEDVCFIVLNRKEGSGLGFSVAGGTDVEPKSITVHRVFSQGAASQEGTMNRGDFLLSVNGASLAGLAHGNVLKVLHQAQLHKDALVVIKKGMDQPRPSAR

Test [14] deals with T8, APBA2_2, Q99767.
T8 sequence (Q99767 654-744, limits assumed, looked up): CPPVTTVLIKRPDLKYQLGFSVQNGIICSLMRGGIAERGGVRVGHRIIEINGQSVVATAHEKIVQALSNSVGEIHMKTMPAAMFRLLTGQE

The target of test [15] is T9, MPDZ_11, O75970.
T9 sequence (O75970 1720-1817, limits assumed, looked up): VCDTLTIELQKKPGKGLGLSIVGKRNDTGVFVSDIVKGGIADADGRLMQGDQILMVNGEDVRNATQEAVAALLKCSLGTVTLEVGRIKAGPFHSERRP

For test [16], the target named is T10, SHANK3, Q9BYB0.
T10 sequence (Q9BYB0 641-750, limits assumed, looked up): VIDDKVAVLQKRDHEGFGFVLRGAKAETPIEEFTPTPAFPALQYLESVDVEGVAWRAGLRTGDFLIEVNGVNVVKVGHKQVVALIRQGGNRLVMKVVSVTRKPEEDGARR

The target of test [17] is MAGI1_6, Q96QZ7.
MAGI1_6, Q96QZ7, sequence (Q96QZ7 1146-1238): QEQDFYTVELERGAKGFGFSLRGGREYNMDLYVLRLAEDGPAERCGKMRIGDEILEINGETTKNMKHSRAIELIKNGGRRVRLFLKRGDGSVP
Test [18] has as its target T11, USH1C_2, Q9Y6N9.
T11 sequence (Q9Y6N9 206-303, limits assumed, looked up): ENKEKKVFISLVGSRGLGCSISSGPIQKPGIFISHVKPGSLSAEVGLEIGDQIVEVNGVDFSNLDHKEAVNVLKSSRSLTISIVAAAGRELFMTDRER

Test [19] deals with T12, SHANK2, Q9UPX8.
T12 sequence (Q9UPX8 621-730, limits assumed, looked up): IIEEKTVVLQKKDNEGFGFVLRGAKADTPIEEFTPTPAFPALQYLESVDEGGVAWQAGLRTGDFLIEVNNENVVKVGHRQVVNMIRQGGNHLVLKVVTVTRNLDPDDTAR

In test [20] the target is T13, USH1C_1, Q9Y6N9.
T13 sequence (Q9Y6N9 82-179, limits assumed, looked up): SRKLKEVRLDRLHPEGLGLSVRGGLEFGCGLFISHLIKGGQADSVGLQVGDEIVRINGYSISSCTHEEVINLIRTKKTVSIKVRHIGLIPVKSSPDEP

Test [21] addresses MAGI1_5, Q96QZ7.
In test [22] the target is SCRIB_4, Q14160.
SCRIB_4, Q14160, sequence (Q14160 1095-1204): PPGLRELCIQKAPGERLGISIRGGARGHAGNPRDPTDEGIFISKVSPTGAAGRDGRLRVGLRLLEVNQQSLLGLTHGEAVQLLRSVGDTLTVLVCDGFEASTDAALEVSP
Test [23] addresses T14, CNKSR1, Q969H4.
T14 sequence (Q969H4 191-295, limits assumed, looked up): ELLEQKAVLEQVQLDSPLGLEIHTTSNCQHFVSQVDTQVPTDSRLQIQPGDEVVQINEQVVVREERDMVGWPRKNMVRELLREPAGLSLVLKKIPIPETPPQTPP

MAGI1_5, Q96QZ7, sequence (Q96QZ7 986-1098): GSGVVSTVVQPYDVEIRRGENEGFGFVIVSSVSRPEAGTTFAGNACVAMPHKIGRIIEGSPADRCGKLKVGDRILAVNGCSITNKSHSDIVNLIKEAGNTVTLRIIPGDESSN
MAGI3_5, Q5TCQ9, sequence (Q5TCQ9 847-941): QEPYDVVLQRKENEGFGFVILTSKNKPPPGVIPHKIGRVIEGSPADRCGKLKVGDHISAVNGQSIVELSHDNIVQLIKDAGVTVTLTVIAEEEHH
PDZD9, Q8IXQ8, sequence (Q8IXQ8 23-120): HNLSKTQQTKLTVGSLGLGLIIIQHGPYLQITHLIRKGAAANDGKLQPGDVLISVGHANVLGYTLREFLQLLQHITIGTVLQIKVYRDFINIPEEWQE

A word on the pKd: it is the Kd on a negative log10 scale, so that one unit is a factor of ten. For SRSRRRETAL [HPV33-E6, P06427], the pKd result in test [1], in test [2], in [3], in test [4], in test [5] and in [6] was “below the threshold” in each case. The negative logarithm of the Kd (pKd) entry in test [7], in test [8], in test [9], in test [10], in test [11] and in test [12] was “below the threshold” each time. Moreover, the negative logarithm of the Kd (pKd) result in [13], in [14], in test [15], in test [16], in [17] and in test [18] was “below the threshold” in each case. Moreover, the pKd result in [19] was “below the threshold”; in test [20], “below the threshold”; in test [21] it was “below the threshold”; in test [22] it was 4.24; in [23] it was “below the threshold”.

Turning to PPRQRSETQV [HPV82-E6, Q9IR59], the negative-log Kd (pKd) entry in test [1], in test [2], in [3], in test [4], in test [5] and in test [6] was “below the threshold” throughout. For the same molecule, the pKd result in test [7], in [8], in [9], in [10], in [11] and in test [12] was “below the threshold” in each case. Further, the pKd result in test [13] is “below the threshold”; in test [14] it was “below the threshold”; in test [15], “below the threshold”; in test [16], “below the threshold”; in [17], 4.21; in [18], “below the threshold”. Further, the negative logarithm of the Kd (pKd) result in test [19] was “below the threshold”; in [20], “below the threshold”; in [21] it was 4.37; in [22] it was “below the threshold”; in test [23], “below the threshold”.

On to SHSSKGETAV [FZD7, O75084], for which the negative logarithm of the Kd (pKd) entry was “below the threshold” in test [1]; “below the threshold” in test [2]; “below the threshold” in test [3]; “below the threshold” in test [4]; “below the threshold” in [5]; 4.42 in test [6]. In addition, the pKd was 4.3 in test [7]; “below the threshold” in test [8]; “below the threshold” in test [9]; “below the threshold” in test [10]; “below the threshold” in test [11]; “below the threshold” in test [12]. The pKd result in [13] is “below the threshold”; in test [14], “below the threshold”; in test [15], “below the threshold”; in [16], “below the threshold”; in [17] it was 4.7; in test [18], “below the threshold”. Moreover, the negative logarithm of the Kd (pKd) result in test [19], in test [20], in test [21], in [22] and in [23] was “below the threshold” throughout.

As for SSIDLWETAL [SLC15A5, A6NIM6], the negative-log Kd (pKd) is 5.57 in [1]; 4.85 in test [2]; “below the threshold” in test [3]; “below the threshold” in [4]; “below the threshold” in [5]; “below the threshold” in test [6]. The negative logarithm of the Kd (pKd) result in [7] was “below the threshold”; in [8], “below the threshold”; in test [9] it was “below the threshold”; in test [10], “below the threshold”; in test [11] it was 5.76; in test [12] it was “below the threshold”. Further, the negative-log Kd (pKd) entry in [13] was “below the threshold”; in [14], “below the threshold”; in test [15], “below the threshold”; in [16] it was 6.63; in [17], 5.18; in test [18], “below the threshold”. Also, the pKd in test [19] is 5.87; in test [20], 4.64; in test [21] it was 5.82; in [22], 4.97; in [23], “below the threshold”.
